“Also recorded” adds a separate entry of the source. One block for each molecule: values may come before it. Bridges are numbered along the chain shown (N, C = ends). Where no end group is shown, it is not given here. [ ]: non-standard residue; d: D form. The star is where a group is joined. Biotin = O=C1N[C@H]2[C@H](CS[C@H]2CCCCC(=O)*)N1; R8 = C=CCCCCCC[C@@](C)(N)C(=O)O; S5 = C=CCCC[C@](C)(N)C(=O)O
Experiments:
[1] = test system: OCI-AML2 cells; experiment: LDH release assay, OCI-AML2; format: cell-based; conditions: OCI-AML2, 90 minutes after peptide treatment, highest dosing level
Description: (§1) LDH release assay: To assess the release of lactate dehydrogenase (LDH) upon treatment with a structurally-stabilized peptide described herein, an LDH release assay can be used. Cultured cells, including, e.g., cancer cells and HUVEC cells, are plated in 96-well format (2x10^4 cells per well; including overnight incubation for adherent cells) and then treated with serial dilutions of structurally-stabilized peptides in a final volume of 100 µL and incubated at 37° C. for the indicated time period (e.g., 90 minutes). The plates are spun down at 1500 rpm for 5 minutes at 4° C., and 80 µL of cell culture media is transferred to a clear plate (Corning), incubated with 80 µL of LDH reagent (Roche) for 15 minutes while shaking, and absorbance is measured at 490 nm on a microplate reader (SpectraMax M5 Microplate Reader, Molecular Devices).
(§2) LDHRelease Assay: OCI-AML2 cells (1 × 10^4 cells/well) were plated in 96-well plates and treated with the indicated peptides or vehicle (0.2% DMSO). After 1.5 hours incubation at 37° C., 100 µl of cell medium was transferred to a 96-well clear plate and incubated with 100 µl of LDH reagent (Roche) for 25 minutes while shaking, and absorbance at 490 nm measured on a microplate reader (SpectraMax M5 Microplate Reader, Molecular Devices).

[2] = test system: EOL-1 cells; experiment: LDH release assay, EOL-1; format: cell-based; conditions: EOL-1, 90 minutes after peptide treatment, highest dosing level
Description: as §1, §2

[3] = biological target: T1, recombinant HDMX (amino acids 1-490 of SEQ ID NO:104) (Homo sapiens, UniProt O15151); experiment: Competitive streptavidin pull-down of biotinylated peptides with 1:1 recombinant HDM2/HDMX mixture, HDMX western; format: binding; conditions: biotinylated stapled peptide, 1:1 mixture of recombinant HDM2 and HDMX
T1 construct: thioredoxin (N, cleaved yes); S tag (N, cleaved yes); hexahistidine (N, cleaved yes); made in house; host or cells: E. coli (inferred: pET32-LIC vector, handled as described for HDM2 in BL21(DE3))
T1 sequence (O15151 1-490): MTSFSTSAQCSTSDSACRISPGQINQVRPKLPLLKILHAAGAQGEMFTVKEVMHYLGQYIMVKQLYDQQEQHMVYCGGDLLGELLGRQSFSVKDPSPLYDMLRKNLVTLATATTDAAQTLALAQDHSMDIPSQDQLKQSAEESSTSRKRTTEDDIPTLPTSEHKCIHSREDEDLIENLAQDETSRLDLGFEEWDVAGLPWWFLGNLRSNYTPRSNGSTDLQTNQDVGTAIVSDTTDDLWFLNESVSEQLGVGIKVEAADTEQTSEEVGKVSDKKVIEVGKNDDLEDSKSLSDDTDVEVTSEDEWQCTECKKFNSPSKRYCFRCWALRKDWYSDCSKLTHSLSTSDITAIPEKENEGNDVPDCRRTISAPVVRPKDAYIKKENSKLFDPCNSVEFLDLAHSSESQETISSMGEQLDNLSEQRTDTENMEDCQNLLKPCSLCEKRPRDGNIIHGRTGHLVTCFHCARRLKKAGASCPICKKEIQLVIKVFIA

[4] = biological target: T2, recombinant HDM2 (amino acids 17-125 of SEQ ID NO:103) (Homo sapiens, UniProt Q00987); experiment: Competitive streptavidin pull-down of biotinylated peptides with 1:1 recombinant HDM2/HDMX mixture, HDM2 western; format: binding; conditions: biotinylated stapled peptide, 1:1 mixture of recombinant HDM2 and HDMX
T2 construct: hexahistidine (N); thrombin cleavage site (N); made in house; host or cells: BL21(DE3) E. coli
Description: For these studies, biotinylated peptides were incubated with a 1:1 mixture of recombinant HDM2 (amino acids 17-125 of SEQ ID NO: 103) and HDMX (amino acids 1-490 of SEQ ID NO: 104), followed by streptavidin pull-down and HDM2 and HDMX Western analyses. […] .

[5] = biological target: T3, native HDMX (Homo sapiens, UniProt O15151); experiment: Streptavidin pull-down from cancer cell lysates, HDMX western; format: binding
T3 construct: high fidelity selectivity for native HDMX from cells; endogenous in cells; host or cells: EOL-1 and OCI-AML2 lysates (endogenous); SJSA-X lysates (cells engineered to express HDMX)
T3 sequence (O15151 1-490): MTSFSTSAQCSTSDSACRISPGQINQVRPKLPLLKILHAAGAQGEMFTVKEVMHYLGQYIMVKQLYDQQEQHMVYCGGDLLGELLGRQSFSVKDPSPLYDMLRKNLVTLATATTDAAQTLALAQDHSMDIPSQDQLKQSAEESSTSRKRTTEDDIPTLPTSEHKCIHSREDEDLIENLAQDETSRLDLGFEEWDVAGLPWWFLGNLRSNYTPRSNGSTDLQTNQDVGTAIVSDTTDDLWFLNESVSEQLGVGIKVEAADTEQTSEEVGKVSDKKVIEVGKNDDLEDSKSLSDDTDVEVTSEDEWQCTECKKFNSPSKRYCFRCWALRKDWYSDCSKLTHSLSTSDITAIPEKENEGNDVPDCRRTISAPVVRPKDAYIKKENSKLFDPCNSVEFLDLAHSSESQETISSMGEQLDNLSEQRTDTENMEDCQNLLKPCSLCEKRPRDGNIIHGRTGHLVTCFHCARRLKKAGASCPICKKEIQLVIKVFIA
Description: (§3) In order to determine if the insights gleaned from the biochemical and structural analyses (Examples 1 and 2, above) informed the development of a stapled p53 peptide with high fidelity selectivity for native HDMX from cells, binding assays were performed using cellular lysates from both hematologic (FIG. 16A) and solid (FIG. 16B) cancers.
(§4) Streptavidin Pull-Down - Cell Lysates: Cultured cells were trypsinized, washed once with cold PBS, and lysed on ice for 30 minutes in lysis buffer (0.5% NP-40, 150 mM NaCl, 50 mM Tris pH 7.4). Protein concentration of the isolated supernatant was determined by Bradford reagent. Lysate samples (2 mg) were incubated with vehicle (0.6% DMSO) or biotinylated peptides (15 nmole) overnight in lysis buffer at 4° C. […] Bead-bound proteins were eluted by addition of 50 µl 2x LDS supplemented with DTT and boiling for 10 minutes. Eluted proteins were then subjected to electrophoresis and western blotting using HDM2 (IF2, EMD Millipore, 1:200) and MDM4 (A300-287A; Bethyl Laboratories, 1:1000) antibodies.

[6] = biological target: T4, native HDM2 (Homo sapiens, UniProt Q00987); experiment: Streptavidin pull-down from cancer cell lysates, HDM2 western; format: binding
T4 construct: in the context of the native proteins from cancer cell lysates; endogenous in cells; host or cells: EOL-1, OCI-AML2, SJSA-X cell lysates
Description: as §3, §4

[7] = test system: wild-type, Y99F, and Y99A HDMX (full-length); experiment: Streptavidin pull-down with wild-type, Y99F and Y99A HDMX proteins; conditions: biotinylated peptide, full-length HDMX proteins incubated individually, HDMX western
[8] = biological target: T5, recombinant HDM2 (amino acids 17-125 of SEQ ID NO:103) (human, UniProt Q00987 17-125); experiment: isothermal titration calorimetry, peptide titrated into HDM2
T5 construct: also called MDM2; not shown: thrombin cleavage site (pET28a vector)

[9] = biological target: T5, recombinant HDM2 (amino acids 17-125 of …); experiment: fluorescence polarization, FITC-labelled peptide titrated with HDM2
[10] = biological target: T5, recombinant HDM2 (amino acids 17-125 of …); experiment: isothermal titration calorimetry, peptide titrated into HDM2; remark: listed apart in the source
[11] = EOL-1, OCI-AML2, and SJSA-X cancer cell lysates
[12] = EOL-1 and OCI-AML2 leukemia cell lysates, biotinylated peptide
[13] = SJSA-X osteosarcoma cell lysates, biotinylated peptide

Molecule: CC(=O)N[C@@H](CC(C)C)C(=O)N[C@H](C(=O)N[C@@H](Cc1ccccc1)C(=O)N[C@]1(C)CCCCCCC=CCCC[C@@](C)(C(=O)N[C@@H](CO)C(=O)N[C@@H](C)C(=O)N[C@@H](C)C(N)=O)NC(=O)[C@H](CCC(=O)O)NC(=O)[C@H](CCC(N)=O)NC(=O)[C@H](C)NC(=O)[C@H](Cc2c[nH]c3ccccc23)NC(=O)[C@H](Cc2ccc(O)cc2)NC(=O)[C@H](CCC(=O)O)NC1=O)[C@@H](C)O [ATSP-7041 B26E, LTF8EYWAQEXSAA]
non-specific membrane disruption (LDH release) [1]: no non-specific membrane disruptive activity
non-specific membrane disruption (LDH release) [2]: no non-specific membrane disruptive activity

Molecule: ATSP-7041 B26A (Biotin-LTF[R8]EYWAQA[S5]SAA-NH2; staple 4-11; SMILES CC(C)C[C@H](NC(=O)CCCC[C@@H]1SC[C@@H]2NC(=O)N[C@@H]21)C(=O)N[C@H](C(=O)N[C@@H](Cc1ccccc1)C(=O)N[C@]1(C)CCCCCCC=CCCC[C@@](C)(C(=O)N[C@@H](CO)C(=O)N[C@@H](C)C(=O)N[C@@H](C)C(N)=O)NC(=O)[C@H](C)NC(=O)[C@H](CCC(N)=O)NC(=O)[C@H](C)NC(=O)[C@H](Cc2c[nH]c3ccccc23)NC(=O)[C@H](Cc2ccc(O)cc2)NC(=O)[C@H](CCC(=O)O)NC1=O)[C@@H](C)O)
HDMX interaction [3]: engage HDMX with greatest affinity
HDMX versus HDM2 binding selectivity [3]: HDMX selectivity over HDM2; also recorded: most HDMX-specific
HDM2 interaction [4]: essentially abrogate HDM2 interaction

Molecule: ATSP-7041 B26I (Biotin-LTF[R8]EYWAQI[S5]SAA-NH2; staple 4-11; SMILES CC[C@H](C)[C@@H]1NC(=O)[C@H](CCC(N)=O)NC(=O)[C@H](C)NC(=O)[C@H](Cc2c[nH]c3ccccc23)NC(=O)[C@H](Cc2ccc(O)cc2)NC(=O)[C@H](CCC(=O)O)NC(=O)[C@](C)(NC(=O)[C@H](Cc2ccccc2)NC(=O)[C@@H](NC(=O)[C@H](CC(C)C)NC(=O)CCCC[C@@H]2SC[C@@H]3NC(=O)N[C@@H]32)[C@@H](C)O)CCCCCCC=CCCC[C@@](C)(C(=O)N[C@@H](CO)C(=O)N[C@@H](C)C(=O)N[C@@H](C)C(N)=O)NC1=O)
HDMX versus HDM2 binding selectivity [3]: dual HDM2/HDXM-targeting activity
HDMX versus HDM2 binding selectivity ([3]; listed as SEQ ID NO:63): dual-selectivity to HDMX and HDM2
HDM2 interaction [4]: restored HDM2 binding and bind

Molecule: ATSP-7041 B26L
HDMX versus HDM2 binding selectivity [3]: dual HDM2/HDXM-targeting activity
HDMX versus HDM2 binding selectivity ([3]; listed as SEQ ID NO:65): dual-selectivity to HDMX and HDM2
HDM2 interaction [4]: restored HDM2 binding and bind

Molecule: ATSP-7041 B26R (Biotin-LTF[R8]EYWAQR[S5]SAA-NH2; staple 4-11; SMILES CC(C)C[C@H](NC(=O)CCCC[C@@H]1SC[C@@H]2NC(=O)N[C@@H]21)C(=O)N[C@H](C(=O)N[C@@H](Cc1ccccc1)C(=O)N[C@]1(C)CCCCCCC=CCCC[C@@](C)(C(=O)N[C@@H](CO)C(=O)N[C@@H](C)C(=O)N[C@@H](C)C(N)=O)NC(=O)[C@H](CCCNC(=N)N)NC(=O)[C@H](CCC(N)=O)NC(=O)[C@H](C)NC(=O)[C@H](Cc2c[nH]c3ccccc23)NC(=O)[C@H](Cc2ccc(O)cc2)NC(=O)[C@H](CCC(=O)O)NC1=O)[C@@H](C)O)
HDMX interaction [3]: engage HDMX with greatest affinity
HDMX versus HDM2 binding selectivity [3]: HDMX selectivity over HDM2; also recorded: most HDMX-specific
HDM2 interaction [4]: essentially abrogate HDM2 interaction

Molecule: QSQQTF8NLWRLEXQN (QSQQTF[R8]NLWRLE[S5]QN; staple 7-14) [SAH-p53-8 L26E]
HDMX interaction [3]: robust HDMX-binding activity
HDMX versus HDM2 binding selectivity [3]: exquisite binding selectivity for HDMX; also recorded: HDMX-selective
native HDMX binding [5, 11]: preserved
native HDMX binding [5, 12]: selective interaction with HDMX
native HDMX binding [5, 13]: predominant HDMX interaction
native HDM2 binding [6, 11]: markedly impaired or abrogated
native HDM2 binding [6, 12]: abrogates HDM2 binding
native HDM2 binding [6, 13]: impairs HDM2 interaction
interaction with Y99F and Y99A HDMX [7]: significantly impaired; also recorded: markedly impair interaction

Molecule: QSQQTF8NLWRLLXQN [SAH-p53-8, reference compound]
HDMX versus HDM2 binding selectivity [3]: dual-targeting HDM2/HDMX
native HDMX binding [5, 11]: effectively engaged
native HDMX binding [5, 12]: binds
native HDMX binding [5, 13]: binds
native HDM2 binding [6, 11]: effectively engaged
native HDM2 binding [6, 12]: binds
native HDM2 binding [6, 13]: binds
interaction with Y99F and Y99A HDMX [7]: retained interaction; also recorded: effectively bind

HDMX interaction [3]: HDMX binding
HDMX versus HDM2 binding selectivity [3]: restored dual HDM2/HDMX interaction
HDMX versus HDM2 binding selectivity ([3]; listed as SEQ ID NO:47): selectivity to HDM2
HDM2 interaction [4]: especially robust HDM2 interaction
Molecule: SAH-p53-4 K24E/E28A: Formula (I) stapled peptide: [Xaa]w LSQETF, [Xaa]x DLWELL, [Xaa]y AN (LSQETF[R8]DLWELL[S5]AN-NH2; staple 7-14; not fully specified (N-terminus))

Kd [8]: 20.4 nM
Kd [9]: 12 nM
B1: SAH-p53-4 (peptide)
peptide: LSQETF[R8]DLWKLL[S5]EN
modifications: staple 7-14; also: N-terminus biotin, acetyl or FITC depending on assay
notes: One entry for the peptide; also called wild-type SAH-p53-4; LSQETF8DLWKLLXEN

Kd [10]: 256 nM
Kd [9]: 149 nM
Molecule: LSQETF[R8]DLWKLE[S5]EN (staple 7-14; also: N-terminus biotin, acetyl or FITC depending on assay) [SAH-p53-4 L26E]
